The record followed here is publication PMC4428384, “Differences in conformational dynamics within the Hsp90 chaperone family reveal mechanistic insights” (Frontiers in Molecular Biosciences, 2014).

Series [1] deals with the molecule itself. The series is described as follows: FRET or BRET; subunit exchange, dimer to monomers: ATTO 488 and ATTO 550 labeled proteins combined (400 nM each), rapidly mixed 1:1 with unlabeled protein (20 μM) in a stopped-flow device, 480 nm excitation, 590 nm cut-off filter; no nucleotide (apo). For orientation: BRET reads energy transfer from a luciferase to a nearby fluorophore.

Series [2] deals with the molecule itself. The series can be described thus: FRET or BRET; subunit exchange as in a1, in the presence of ADP.
Series [3] concerns the molecule itself. The series is described as follows: FRET or BRET; subunit exchange as in a1, in the presence of ATP.

B1: hHsp90β-E20C,C366A,C412T,C521A,C564T,C589A,C590A, labeled with ATTO 488 or ATTO 550 (natural protein)
chain: not shown
modifications: ATTO 488 maleimide or ATTO 550 maleimide on the single cysteine (E20C)
notes: human Hsp90β; single cysteine variant with the natural cysteines replaced; Homodimeric protein; the rows are protomer with protomer
In the case of B1, the subunit exchange rate in series [1] stood at 0.016 s⁻¹; in series [2], 0.016 s⁻¹; in series [3] it was 0.01 s⁻¹.
